Measurements from patent US20230287338A1 (MINERVA BIOTECHNOLOGIES, published 2023).
Blank lines part the entries; values can stand above or below the binder they belong to. Groups on a side chain read outwards from the residue. No end group written: not given here. maleimide = maleimide group on the activated BSA carrier, coupling the C-terminal Cys

Legend:
[1] = biological target: T1, NME7-AB (recombinant human NME7 comprising essentially the NDPK A and B domains, expressed in E. coli) (human, UniProt Q9Y5B8 92-376); assay: sandwich ELISA, NME7-AB held on plate-bound PSMGFR, detection with HRP labeled anti-His-tag antibody
T1 construct: Monomeric; purified over NTA-Ni and by size exclusion; the purification described uses Ni-NTA; also called recombinant NME7; NME7 (NME7-AB construct); not shown: a Strep Tag II version was al
T1 sequence: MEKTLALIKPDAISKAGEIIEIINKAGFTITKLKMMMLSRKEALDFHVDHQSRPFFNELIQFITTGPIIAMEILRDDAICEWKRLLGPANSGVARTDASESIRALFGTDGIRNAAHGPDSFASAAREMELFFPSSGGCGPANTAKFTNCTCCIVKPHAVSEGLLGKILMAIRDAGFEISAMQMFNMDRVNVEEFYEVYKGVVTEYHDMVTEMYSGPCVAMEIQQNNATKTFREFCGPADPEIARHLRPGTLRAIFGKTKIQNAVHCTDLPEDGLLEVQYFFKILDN
Method: (§1) The PSMGFR peptide bearing a C-terminal Cysteine (PSMGFR-Cys) was covalently coupled to BSA using Inject Maleimide activated BSA kit (Thermo Fisher). PSMGFR-Cys coupled BSA was diluted to 10 ug/mL in 0.1M carbonate/bicarbonate buffer pH 9.6 and 50 uL was added to each well of a 96 well plate. After overnight incubation at 4° C., the plate was wash twice with PBS-T and a 3% BSA solution was added to block remaining binding site on the well. After 1 h at RT the plate was washed twice with PBS-T and NME7, diluted in PBS-T+1% BSA, was added at different concentrations. After 1 h at RT the plate was washed 3× with PBS-T and anti-NM23-H7 (B-9, Santa Cruz Biotechnology), diluted in PBS-T+1% BSA, was added at 1/500 dilution. […] After 1 h at RT the plate was washed 3× with PBS-T and binding of NME7 was measured at 415 nm using a ABTS solution (Pierce). […]
(§2) After 1 h at RT the plate was washed 3× with PBS-T and HisTagged PSMGFR peptide (PSMGFR-His) or biotinylated PSMGFR peptide (PSMGFR-biotin), diluted in PBS-T+1% BSA, was added at different concentration. […] After 1 h at RT the plate was washed 3× with PBS-T and binding of PSMGFR peptide to NME7 already bound to another PSMGFR peptide (which could not signal by anti-His antibody or by streptavidin) coupled BSA was measured at 415 nm using a ABTS solution (Pierce).

[2] = biological target: T1, NME7-AB (recombinant human NME7 …); assay: gold nanoparticle aggregation assay
Method: Gold nanoparticles of a diameter of 30.0 nm were coated with an NTA-SAM surface according to Thompson et al. (ACS Appl. Mater. Interfaces, 2011, 3 (8), pp 2979-2987). The NTA-SAM coated gold nanoparticles were then activated with an equal volume of 180 uM NiSO₄, incubated for 10 min at room temperature, washed, and resuspended in a 10 mM phosphate buffer (pH 7.4). The gold nanoparticles were then loaded with PSMGFR N-10 peptide ([…]-HHHHHH (SEQ ID NO:112)) at 0.5 uM final concentration, and incubated at room temperature for 10 min Recombinant NME7-AB protein expressed and purified from E. coli was added free in solution at the concentrations indicated. When particle-immobilized proteins bind to each other, or simultaneously bind to two different peptides on two different particles, the particle solution color changes from pink/red to purple/blue. If the protein added free in solution causes particle aggregation, it is strong evidence that the free protein dimerizes the cognate peptide, since binding to a single peptide would not induce two or more particles to be brought into close proximity to each other.
The NME7-AB is added free in solution at the concentrations indicated. Solution color change from pink to purple/blue from particle aggregation indicates binding between the MUC* peptide on the particles and NME7 free in solution. […]

[3] = biological target: T1, NME7-AB (recombinant human NME7 …); assay: sandwich ELISA, NME7-AB held on plate-bound PSMGFR, detection with streptavidin
Method: as §1, §2

[4] = biological target: T1, NME7-AB (recombinant human NME7 …); assay: ELISA, carrier-coupled PSMGFR-Cys on plate
Method: The PSMGFR peptide bearing a C-terminal Cysteine (PSMGFR-Cys) was covalently coupled to BSA using Inject Maleimide activated BSA kit (Thermo Fisher). PSMGFR-Cys coupled BSA was diluted to 10 ug/mL in 0.1M carbonate/bicarbonate buffer pH 9.6 and 50 uL was added to each well of a 96 well plate. After overnight incubation at 4° C., the plate was wash twice with PBS-T and a 3% BSA solution was added to block remaining binding site on the well. After 1 h at RT the plate was washed twice with PBS-T and NME7, diluted in PBS-T+1% BSA, was added at different concentrations. After 1 h at RT the plate was washed 3× with PBS-T and anti-NM23-H7 (B-9, Santa Cruz Biotechnology), diluted in PBS-T+1% BSA, was added at 1/500 dilution. After 1 h at RT the plate was washed 3× with PBS-T and goat anti mouse-HRP, diluted in PBS-T+1% BSA, was added at 1/3333 dilution. After 1 h at RT the plate was washed 3× with PBS-T and binding of NME7 was measured at 415 nm using a ABTS solution (Pierce).

binding result [1]: binds
B1: histidine-tagged MUC1* extra cellular domain peptide (His-tagged PSMGFR sequence) (peptide)
peptide: GTINVHDVETQFNQYKTEAASRYNLTISDVSVSDVPFPFSAQSGAHHHHHH
notes: also called PSMGFR-His; HisTagged PSMGFR peptide

binding result [2]: binds
B2: PSMGFR N-10 peptide (His-tagged) (peptide)
peptide: QFNQYKTEAASRYNLTISDVSVSDVPFPFSAQSGAHHHHHH
notes: loaded on NTA-Ni-SAM coated gold nanoparticles; also called N-10 PSMGFR peptide; MUC1* peptide on NTA-Ni-SAM nanoparticles

binding result [3]: binds
B3: biotinylated PSMGFR peptide (PSMGFR-biotin) (peptide)
peptide: GTINVHDVETQFNQYKTEAASRYNLTISDVSVSDVPFPFSAQSGA
modifications: also: biotinylated (position not given here)
notes: also called second MUC1* peptide with biotin

binding result [4]: binds
B4: PSMGFR peptide bearing a C-terminal Cysteine (PSMGFR-Cys) coupled to BSA (peptide)
peptide: GTINVHDVETQFNQYKTEAASRYNLTISDVSVSDVPFPFSAQSGAC([maleimide-BSA])
modifications: not fully specified
notes: Coated on the ELISA plate; also called PSMGFR-Cys coupled BSA; first MUC1* peptide of the sandwich ELISA
